The values below come from patent publication US9340769B2 (priority 2008, dated 2016).

One data set has as its system stratum corneum barrier. Type of data set: in vivo, ICR mice.
The test system of data set [1] is P. acnes. Put plainly: Effect of desipramine on P. acnes-induced inflammation in vivo (ear thickness). More on the design: species or system ICR mice. The note with it: 20 mg/kg i.p. 30 min before challenge; 24 hr. As to the method:
(A) Amount of soluble ASMase in mouse ear increased 24 hr after bacteria challenge. Ears of ICR mice were intradermally injected with of P. acnes in PBS (1×10^7 CFU/20 μl; left ear) or PBS (20 μl; right ear), and excised after 24 hr. Ear tissue was obtained with a 8 mm biopsy and homogenized in PBS. The supernatant (1 ug of total protein) was subjected to Western blotting. ASMase (upper panels) and GAPDH (lower panels) were detected with goat anti-ASMase IgG followed by anti-GAPDH IgG (left panels). Normal goat or mouse IgG was used as a negative control for the detection (right panels). (B) P. acnes challenge into mouse ear attracted CD11b+ macrophages which highly expressed ASMase. Frozen sections of mouse ear obtained 24 after bacteria challenge were stained with biotinylated anti-mouse CD11b IgG, a conventional macrophage marker, and TRITC-streptavidin conjugate, followed by Goat anti-ASMase IgG and anti-goat IgG-TRITC conjugate. The nuclei were stained with DAPI (blue). Bar=200 μm. (C) Transmission electron microscopy (10,000× magnification) was used to visualize colonized P. acnes and ruptured cell membrane in mouse ears injected with P. acnes or PBS. PA, P. acnes; CM, cell membrane; NC, nucleus. Bar=1 μm. (D) Systemic pre-treatment of ICR mice with selective ASMase inhibitor relieved P. acnes-induced inflammation. […]

Data set [2] has as its system HaCaT cells co-cultured with P. acnes. Briefly: P. acnes-mediated cell death: neutralization assay / ASMase inhibitor, HaCaT. The note with it: desipramine 10 μM, 14 hr; 43.4% with PBS vehicle.
The next data set has as its system sialidase. Put plainly: Immunogenicity of sialidase vaccines (Western blot, antigen microarray). The note with it: recombinant protein with Freund (in)complete adjuvants; three weeks after immunization. Background: A western blot detects proteins with antibodies after separation by electrophoresis.
The test system of data set [3] is P. acnes. Put plainly: P. acnes-induced ear thickness/redness in immunized mice (subcutaneous ear challenge).
Another data set deals with human SZ95 sebocytes. Put plainly: Susceptibility of sialidase-treated sebocytes to P. acnes (cell death by trypan blue, adherence by CFU). Conditions: pre-treatment 10 μg/ml for 2 h; GFP no effect.
Data set [4] deals with sialic acids on the surface of human SZ95 sebocytes. Briefly: Sialidase enzyme activity: removal of surface sialic acids from sebocytes (MAA lectin I / streptavidin-FITC flow cytometry). The note with it: compared among three cloned P. acnes sialidases. (In general: Flow cytometry measures light scatter and fluorescence of single cells or particles in a stream.)

With `CCCCCCCCCCCCCCO[C@@H]1O[C@H](CO)[C@@H](O[C@H]2O[C@H](CO)[C@@H](O)[C@H](O)[C@H]2O)[C@H](O)[C@H]1O` [TDM, tetradecyl-β-D-maltoside], the “effect on stratum corneum barrier” value in the data set on stratum corneum barrier (0.125% in sterile water, 15 min) was “slightly disrupts”. Further, the “effect on epicutaneous immunization of E. coli based-tetanus toxin C fragment vaccine” value in the data set with stratum corneum barrier (mouse, in vivo) is listed as “greatly enhances”.
Regarding `CNCCCN1c2ccccc2CCc2ccccc21` [desipramine], the “P. acnes-induced ear swelling” value in the data set with P. acnes [1] is on record as “significantly relieved”. Besides, in data set [2], the “P. acnes-induced cell death, reduced by (HaCaT)” value is given as 21.9%.

B1: sialidase: recombinant P. acnes cell wall-anchored sialidase (gi|50843035) 6×NH fusion protein; enzyme and, with Freund adjuvants, vaccine (protein)
chain: MTLTTKLSALAIAGIMAVIGAPMVTQSAMASGRAPAPDAATTQPKLVTGDITSTDQSGTHLFFGKNIVRNAKGAIMKVDRTWPAAVPAPLPDVRADSSTRMLLGPVVDLAVNEHPAGVFYRIPALATASNGDLLASYDLRPGSAADAPNPNSIVQRRSRDNGRTRGPQTVIHAGTLGRRKVGYSDPSYLVDPATGHILNFHVKSYDRGFATSEVGTDPDDRHVLHAEVSTSTDNGHTWTYRDITREITPDPTTRTRFVASGQGIALLHGPHAGGLIAQMTVRNSVGQQAQSIYSDDHGITWHAGNPVGRMMDENKVVELSDGTLMLNSRDAARSGRRKVAYSHDGGLTWGPVKLVDDLIDPTNNAQIIRAYPNARAGSAKARILLFTNARNATERVNGTLSVSCDDGRTWVSHQTYMPGEVGYTTAAVQSDGALGVLWERDGIRYSTIPMGWLNSVCPVAPSGRPTSGEPTSGTSLPLTATPSGSLHGGASSRPTSLPHTGD
modifications: left off: small tags and cut ends
Take B1: the “anti-sialidase antibody in serum (Western blot)” value with sialidase was “strong band”. For the same molecule, the “elevation of ear thickness, reduced by” value in the data set on P. acnes [3] (recombinant sialidase with Freund (in)complete adjuvants vs GFP-immunized, P. acnes 10^7 CFU s.c.) was “more than 50%”. Further, the “recovery of ear redness, days after P. acnes challenge” value with P. acnes [3] (sialidase-immunized, GFP-immunized 7 days) was determined as 3 days. Moreover, in the data set with human SZ95 sebocytes, the “adherence of P. acnes into sebocytes” value is on record as “considerably increased”. The “enzyme activity in removing the sialic acids from the surface of human SZ95 sebocytes” value in data set [4] was “strongest enzyme activity”.
